In article PMC3785480, “BB0347, from the Lyme Disease Spirochete Borrelia burgdorferi, Is Surface Exposed and Interacts with the CS1 Heparin-Binding Domain of Human Fibronectin” (PLoS ONE, 2013):

Molecular target: T1, recombinant BB0347 (Borrelia burgdorferi)
T1 construct: also called rBB0347; source: E. coli Rosetta(DE3)pLysS, pET200, purified (MagneHis nickel particles, dialysed into PBS)
Test: ELISA; FnHBD assay: coated plate treated with varying concentrations of rBB0347, 37°C, 1.5 h; detected with rabbit polyclonal anti-BB0347; KD = concentration of added protein at half-maximal binding, assuming saturation
Details: both partners purified

B1: peptide fragment containing the CS1 heparin-binding domain (HBD) of human Fn (domain or fragment)
chain: AIPAPTDLKFTQVTPTSLSAQWTPPNVQLTGYRVRVTPKEKTGPMKEINLAPDSSSVVVSGLMVATKYEVSVYALKDTLTSRPAQGVVTTLENVSPPRRARVTDATETTITISWRTKTETITGFQVDAVPANGQTPIQRTIKPDVRSYTITGLQPGTDYKIYLYTLNDNARSSPVVIDASTAIDAPSNLRFLATTPNSLLVSWQPPRARITGYIIKYEKPGSPPREVVPRPRPGVTEATITGLEPGTEYTIYVIALKNNQKSEPLIGRKKT
For B1, the Kd was 180 ± 14 nM.
